Assay results as given in the supplement of paper PMC10724198.
Several values for one entry are separate records, joined by “and”; a condition that tells them apart may be missing. Identical values can stand only once. ± gives the standard deviation of the averaged measurements.

Legend:
Saccharomyces cerevisiae [1] = test: protein stability index of tFT-peptide fusion in wild type (PSI (0-1 scale)); higher = more stable (slower turnover); conditions: genetic background: wild type
Saccharomyces cerevisiae [2] = test: protein stability index of tFT-peptide fusion in deletion strain of DOA10 (PSI (0-1 scale)); higher = more stable (slower turnover)
Description: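 MPS profiling in S. cerevisiae of two library types built from selected 12-aa C-degron peptides (IN1, IN2, LN1, LN3, VN2, R1-R5, W1-W3, Atg1 and Rpa12 C-termini): saturation mutagenesis libraries and C-terminal +1 capping libraries (13 aa). Each peptide is fused to the C-terminus of a sfGFP-mCherry timer, after a GGGS linker. Cells are FACS-sorted into 8 mCherry/sfGFP bins and sequenced. PSI runs from 0 (unstable) to 1 (stable), measured once in wild type and in the das1Δ or doa10Δ background.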

Saccharomyces cerevisiae [3] = test: protein stability index of tFT-peptide fusion (C-terminal peptide) (PSI (0-1 scale)); higher = more stable (slower turnover); conditions: genetic background: wild type; temperature: 30 C
Saccharomyces cerevisiae [4] = test: as above
Description: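 MPS profiling in S. cerevisiae of the tFT-X12 degron library: putative degron peptides plus stable controls, 12 aa, fused to the C-terminus of a sfGFP-mCherry timer. Cells are FACS-sorted into 8 mCherry/sfGFP bins and deep-sequenced. PSI runs from 0 (unstable) to 1 (stable). Backgrounds are wild type, das1Δ and doa10Δ at 30 °C, and wild type, das1Δ, cdc34-1 and cdc53-1 at 37 °C; 2-3 technical replicates each.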

Saccharomyces cerevisiae [5] = test: protein stability index of tFT-peptide fusion in deletion strain of DAS1 (PSI (0-1 scale)); higher = more stable (slower turnover)
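For protein stability index of tFT-peptide fusion (C-terminal peptide) in this document: PSI is a weighted mean of sequencing reads over stability bins, variants kept only with over 10 reads, mCherry proximal and sfGFP distal, peptide attached via GGGS linker.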
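For protein stability index of tFT-peptide fusion in deletion strain of DAS1 in this document: PSI is a weighted mean of each variant's read distribution over the sorted stability bins, computed only for variants having over 10 reads in total.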
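For protein stability index of tFT-peptide fusion in deletion strain of DOA10 in this document: PSI per variant is the weighted mean of its sequencing read distribution over the sorted stability bins, counting only variants with over 10 reads summed across bins.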
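For protein stability index of tFT-peptide fusion in wild type in this document: PSI derived as read-weighted mean over the 8 sorting bins, only variants exceeding 10 total reads kept, mCherry placed adjacent to the peptide and sfGFP distal.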

Sequence	protein stability index (Saccharomyces cerevisiae [1])	protein stability index (Saccharomyces cerevisiae [5])	other results
AIFLPMCPLLLR	0.278	–	protein stability index (Saccharomyces cerevisiae [2]): 0.631
AIHLPMCPLLLR	0.278	–	protein stability index (Saccharomyces cerevisiae [2]): 0.65
AITGPMCPLLLR	0.497	–	protein stability index (Saccharomyces cerevisiae [2]): 0.666
AITKPMCPLLLR	0.458	–	protein stability index (Saccharomyces cerevisiae [2]): 0.651
AITLGMCPLLLR	0.373	–	protein stability index (Saccharomyces cerevisiae [2]): 0.661
AITLNMCPLLLR	0.261	–	protein stability index (Saccharomyces cerevisiae [2]): 0.662
AITLPMCPLFLR	0.184	–	protein stability index (Saccharomyces cerevisiae [2]): 0.67
AITLPMCPLLER	0.648	–	protein stability index (Saccharomyces cerevisiae [2]): 0.741
AITLPMCPLLLH	0.502	–	protein stability index (Saccharomyces cerevisiae [2]): 0.621
AITLPMCPLLLN	0.135	–	protein stability index (Saccharomyces cerevisiae [2]): 0.189
AITLPMCPLLLRN	0.281	–	protein stability index (Saccharomyces cerevisiae [2]): 0.659
AITLPMCPYLLR	0.545	–	protein stability index (Saccharomyces cerevisiae [2]): 0.675
AITLPMCVLLLR	0.0936	–	protein stability index (Saccharomyces cerevisiae [2]): 0.608
AITLPMCWLLLR	0.0817	–	protein stability index (Saccharomyces cerevisiae [2]): 0.736
AITLPQCPLLLR	0.293	–	protein stability index (Saccharomyces cerevisiae [2]): 0.661
KKHKKGQKQKIN	0.113 and 0.11	0.66 and 0.611	protein stability index (Saccharomyces cerevisiae [3]): 0.175 ± 0.039; protein stability index (Saccharomyces cerevisiae [4]; genetic background: cdc34-1, temperature: 37 C): 0.535 ± 0.036; protein stability index (Saccharomyces cerevisiae [4]; genetic background: cdc53-1, temperature: 37 C): 0.694 ± 0.011; protein stability index (Saccharomyces cerevisiae [4]; genetic background: das1 deletion, temperature: 30 C): 0.622 ± 0.04; protein stability index (Saccharomyces cerevisiae [4]; genetic background: das1 deletion, temperature: 37 C): 0.725 ± 0.021; protein stability index (Saccharomyces cerevisiae [4]; genetic background: doa10 deletion, temperature: 30 C): 0.0638 ± 0.032; protein stability index (Saccharomyces cerevisiae [4]; genetic background: wild type, temperature: 30 C): 0.0729 ± 0.029; protein stability index (Saccharomyces cerevisiae [4]; genetic background: wild type, temperature: 37 C): 0.149 ± 0.11
PSLAASFWRVVW	0.637	0.683	–
PSLAASGWRVVG	0.193	0.679	–
PSLAASMWRVVG	0.147	0.73	–
PSLAASTWRVVG	0.132	0.68	–
PSLAGSFWRVVG	0.152	0.667	–
PSLAHSFWRVVG	0.167	0.669	–
PSLAISFWRVVG	0.127	0.633	–
PSMRWTFRYWVN	0.0877	0.571	–
QDKRNHLIKLLN	0.0816	0.592	–
QSLAASFWRVVG	0.13	0.698	–
RAIQPLPVQFLN	0.121	0.674	–

Sequence	protein stability index (Saccharomyces cerevisiae [1])	protein stability index (Saccharomyces cerevisiae [5])	other results
RIIQPLPVQFLN	0.0603	0.598	–
RLIEPLPVQFLN	0.076	0.578	–
RLIPPLPVQFLN	0.0667	0.576	–
RLIQPLLVQFLN	0.0592	0.575	–
RLIQPLPAQFLN	0.0736	0.602	–
RLIQPLPHQFLN	0.0684	0.645	–
RLIQPLPNQFLN	0.21	0.703	–
RLIQPLPPQFLN	0.132	0.521	–
RLIQPLPVAFLN	0.0928	0.552	–
RLIQPLPVQFLND	0.652	0.671	–
RLIQPLPVQFLNK	0.647	0.676	–
RLIQPLPVQFLNM	0.584	0.655	–
RLIQPLPVQFLR	0.668	0.58	–
RLIQPLPVQFLS	0.156	0.606	–
RLIQPLPVQHLN	0.1	0.564	–
RLIQPLPWQFLN	0.0707	0.699	–
RLIQPRPVQFLN	0.0515	0.613	–
RLIQWLPVQFLN	0.071	0.613	–
RLIWPLPVQFLN	0.0399	0.57	–
RRGAVGGWRLVG	0.16	0.687	–
RTIQPLPVQFLN	0.101	0.629	–
SDKRNHLIKLLN	0.156	0.607	–
SRGAVGGWRLVG	0.171	0.677	–
SRWRVGLWRGAS	0.458	0.672	–
SSLAASFWRVVG	0.16	0.692	–
TSMRWTFRYWVN	0.0899	0.696	–
VRGAKGGWRLVG	0.28	0.67	–

Sequence	protein stability index (Saccharomyces cerevisiae [1])	protein stability index (Saccharomyces cerevisiae [5])	other results
VRGANGGWRLVG	0.212	0.677	–
VRGAQGGWRLVG	0.191	0.701	–
VRGAVAGWRLVG	0.156	0.655	–
VRGAVGGMRLVG	0.592	0.677	–
VRGAVGGWRCVG	0.222	0.658	–
VRGAVGGWRFVG	0.142	0.674	–
VRGAVGGWRHVG	0.137	0.691	–
VRGAVGGWRLFG	0.333	0.694	–
VRGAVGGWRLTG	0.269	0.659	–
VRGAVGGWRLVGM	0.621	0.685	–
VRGAVGGWRLVGQ	0.701	0.667	–
VRGAVGGWRLVGS	0.174	0.67	–
VRGAVGGWRLVW	0.714	0.671	–
VRGAVGGWRNVG	0.364	0.676	–
VRGAVGGYRLVG	0.658	0.681	–
VRGAVGIWRLVG	0.156	0.681	–
VRGAVMGWRLVG	0.154	0.71	–
VRGAVPGWRLVG	0.149	0.678	–
VRGAVTGWRLVG	0.157	0.684	–
VRGHVGGWRLVG	0.131	0.672	–
VRWAVGGWRLVG	0.0824	0.685	–
VSLAASFWRVVG	0.102	0.676	–
VYGAVGGWRLVG	0.137	0.677	–
WTSCGYKFRTNN	0.173	0.699	–
YKILRQKMNHQN	0.196	0.668	–
YVVYLSCVACIN	0.0134	0.0254	–
